Data: US20170166895

Target: Complement component 3 (C3) (Homo sapiens) (UniProt P01024+P01024)
Experiment: filter
Conditions: 3'-3' idT
[1] = all U in listing = NapdU, SB18T0.01, 37C
[2] = all U = NapdU, T = dT, SB18T0.01, 37C

Sequence of Complement component 3 (C3) (Homo sapiens) (P01024 23-667, chain 1 of 2): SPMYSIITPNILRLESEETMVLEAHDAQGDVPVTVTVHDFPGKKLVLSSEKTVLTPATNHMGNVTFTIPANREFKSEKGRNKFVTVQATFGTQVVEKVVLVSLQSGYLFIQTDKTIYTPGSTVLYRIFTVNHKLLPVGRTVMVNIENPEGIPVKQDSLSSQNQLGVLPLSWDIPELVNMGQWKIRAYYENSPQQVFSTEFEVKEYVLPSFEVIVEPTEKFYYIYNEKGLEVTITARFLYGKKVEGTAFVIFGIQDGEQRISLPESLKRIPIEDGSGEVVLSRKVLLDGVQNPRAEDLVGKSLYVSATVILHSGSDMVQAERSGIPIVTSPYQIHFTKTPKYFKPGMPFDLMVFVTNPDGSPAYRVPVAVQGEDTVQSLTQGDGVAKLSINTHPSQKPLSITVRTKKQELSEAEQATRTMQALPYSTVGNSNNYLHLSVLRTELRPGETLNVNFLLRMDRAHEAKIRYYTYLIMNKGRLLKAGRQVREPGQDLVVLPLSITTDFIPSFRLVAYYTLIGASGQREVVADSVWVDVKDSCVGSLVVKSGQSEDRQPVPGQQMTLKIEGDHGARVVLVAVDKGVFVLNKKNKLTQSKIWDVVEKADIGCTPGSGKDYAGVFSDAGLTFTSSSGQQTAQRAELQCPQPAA
Sequence of Complement component 3 (C3) (Homo sapiens) (P01024 672-1663, chain 2 of 2): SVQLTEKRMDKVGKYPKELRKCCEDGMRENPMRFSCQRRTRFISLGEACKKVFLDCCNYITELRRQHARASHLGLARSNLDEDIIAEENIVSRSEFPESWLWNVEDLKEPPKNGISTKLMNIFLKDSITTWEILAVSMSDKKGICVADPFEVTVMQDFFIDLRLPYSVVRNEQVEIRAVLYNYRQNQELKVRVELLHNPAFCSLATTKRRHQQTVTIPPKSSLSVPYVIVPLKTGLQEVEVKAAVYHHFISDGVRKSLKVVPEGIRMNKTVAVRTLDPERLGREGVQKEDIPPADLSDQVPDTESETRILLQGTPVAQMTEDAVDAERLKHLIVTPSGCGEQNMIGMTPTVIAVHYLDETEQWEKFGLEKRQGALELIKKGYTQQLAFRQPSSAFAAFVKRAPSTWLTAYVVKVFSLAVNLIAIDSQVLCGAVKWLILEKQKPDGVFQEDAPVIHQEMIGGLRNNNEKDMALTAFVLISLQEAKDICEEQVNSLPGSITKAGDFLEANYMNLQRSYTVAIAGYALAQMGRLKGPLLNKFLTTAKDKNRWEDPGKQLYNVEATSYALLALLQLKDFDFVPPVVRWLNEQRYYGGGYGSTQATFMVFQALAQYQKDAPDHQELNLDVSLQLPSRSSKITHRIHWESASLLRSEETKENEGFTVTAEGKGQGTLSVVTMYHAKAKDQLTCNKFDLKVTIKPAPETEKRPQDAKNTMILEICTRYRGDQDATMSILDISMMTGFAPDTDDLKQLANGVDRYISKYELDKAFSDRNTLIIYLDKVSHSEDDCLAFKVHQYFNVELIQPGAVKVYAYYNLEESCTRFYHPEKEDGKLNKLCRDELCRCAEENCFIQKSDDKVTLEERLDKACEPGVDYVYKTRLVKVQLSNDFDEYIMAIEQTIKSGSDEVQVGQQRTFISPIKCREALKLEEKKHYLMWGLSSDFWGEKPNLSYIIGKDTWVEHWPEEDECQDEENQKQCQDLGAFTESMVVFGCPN

ACTCCAUGUCGGCGUUUGACUCAAUAGUCCGUACGUUUGGCCGGGCAGGGGAGGA [8491-405_3]
Kd [1]: 0.159 nM

ACTCCGAGCAUUGACUCAAUAGUCCGUACGUUCCCGGUCUGAACGUGGAGGA [8491-406_3]
Kd [1]: 2.47 nM

GGGUGACUCAAUAGUCCGUACGUUCCCC [8491-94_127]
Kd (all U = NapdU, 2'-OMe at 1,2,3,5,7,9,10,13,19,20,22-28, SB18T0.01, 37C): 0.045 nM

CGGUGACUCAAUAGUCCGUACGUUCCCG [8491-94_93]
Kd (all U = NapdU, 2'-OMe at 1,2,3,5,7,10,13,19,23,24,26,27,28, SB18T0.01, 37C): 0.0152 nM

CGGUGACUCAAUAGUCCGUACGUUCCCG [8491-94_67]
Kd (P = NapdU (all U), 2'-OMe C9, SB18T0.01, 5 mM MgCl2, 37 C): 0.0699 nM

CGGUGACUCAAUAGUCCGUACGUUCCCG [8491-94_80]
Kd (P = NapdU (all U), 2'-OMe G22, SB18T0.01, 5 mM MgCl2, 37 C): 0.0678 nM

CGGUGACUCAAUAGUCGUATGUUCCCG [8491-94_133]
Kd (all P = NapdU, T = dT, 2'-OMe at 1,2,3,5,7,9,10,13,19,20 and all residues after T21, C3-spacer replaces C17, SB18T0.01, 37C): 5.06 nM

CGGUGAUCAAUAGUCGUACGUUCCG [8491-94_100]
Kd (all U = NapdU, 2'-OMe at 1,2,3,5,9,10,13,19,20,22,23,24,26,27,28, C3-spacer replaces C7, C17, C25, SB18T0.01, 37C): 0.0794 nM

ACTCCCCGGUGACUCAAUAGUCCGUACGUTCCCGGUCCGAACGCGGAGGA [8491-94_17]
Kd [2]: 2.88 nM

ACTCCUGUUGACUCACAUAGUCCGUACGUUUACGGCAAUAGCACAGAGGA [8491-396_3]
Kd [1]: 0.311 nM

GGGUGACUCAAUAGUCCGUACAUUCCCC [8491-94_135]
Kd (all P = NapdU, 2'-OMe at 1,2,3,5,7,9,10,13,19,20,22-28, SB18T0.01, 37C): 15.3 nM

CCCCGGUGACUCAAUAGUCCGUACGUUCCCGGUCC [8491-94_24]
Kd (all U = NapdU, SB18T0.01, 37C): 0.0535 nM

CGGUGACUCAAUAGUCCGUACGUUCCCGG [8491-94_30]
Kd (all U = NapdU, C3-spacer replaces C1, SB18T0.01, 37C): 0.0622 nM

CGGUGACUCAAUAGUCCGUACGUUCCCG [8491-94_71]
Kd (P = NapdU (all U), 2'-OMe A13, SB18T0.01, 5 mM MgCl2, 37 C): 0.0256 nM

CGGUGACUCAAUAGUCCGUACGUUCCCG [8491-94_68]
Kd (P = NapdU (all U), 2'-OMe A10, SB18T0.01, 5 mM MgCl2, 37 C): 0.0424 nM

ACTCCAGCAACUUGACUCAAUAGUCCGUACGUUUAUGCGAGAACAGAGGA [8491-386_3]
Kd [1]: 0.104 nM

ACTCCUUGACUCGAUAGUCCGUACGUUUGCGGAAUACCAGCUGACGAGGA [8491-400_3]
Kd [1]: 1.2 nM

CCCGGUGACUCAAUAGUCCGUACGUUCCCGGUCCGAACGCGGAGGA [8491-94_22]
Kd (all U = NapdU, SB18T0.01, 37C): 0.103 nM

ACTCCUACAAAGCGAUUGGCUCGAUAGUCAGUACGUUUCUCGCUCGAGGA [8491-390_3]
Kd [1]: 0.412 nM

TGGUGACUCAAUAGUCGUATGUUCCCA [8491-94_131]
Kd (all P = NapdU, T = dT, 2'-OMe at 2,3,5,7,9,10,13,19,20,22-28, C3-spacer replaces C17, SB18T0.01, 37C): 5.64 nM

CGGUGACUCAAUAGUCCGUACGUUCCCG [8491-94_74]
Kd (P = NapdU (all U), 2'-OMe C16, SB18T0.01, 5 mM MgCl2, 37 C): 0.192 nM

CCGGUGACUCAAUAGUCCGUACGUUCCGG [8491-94_48]
Kd (all U = NapdU, C3-spacer replaces C26, SB18T0.01, 37C): 0.0302 nM

CGGUGACUCAAUAGUCCGUACGUUCCCG [8491-94_86]
Kd (P = NapdU (all U), 2'-OMe G28, SB18T0.01, 5 mM MgCl2, 37 C): 0.0344 nM

CGGUGACUCAAUAGUCCGUACGUUCCCG [8491-94_95]
Kd (all U = NapdU, 2'-OMe at 1,2,3,5,7,10,13,19,20,23-28, SB18T0.01, 37C): 0.0357 nM

CGGUGACUCAAUAGUCCGUACGUUCCCG [8491-94_78]
Kd (P = NapdU (all U), 2'-OMe A20, SB18T0.01, 5 mM MgCl2, 37 C): 0.0718 nM

UGACUCAAUAGUCCGUACGUUCCCGGUCCGAACGCGGAGGA [8491-94_10]
Kd (all U = NapdU, SB18T0.01, 37C): 7.6 nM

TGGUGACUCAAUAGUCGUACGUUCCCA [8491-94_129]
Kd (all P = NapdU, T1 = dT, 2'-OMe at 2,3,5,7,9,10,13,19,20,22-28, C3-spacer replaces C17, SB18T0.01, 37C): 0.0179 nM

CGGUGACUCAAUAGUCCGUACGUUCCCG [8491-94_83]
Kd (P = NapdU (all U), 2'-OMe C25, SB18T0.01, 5 mM MgCl2, 37 C): 0.0488 nM

CCGGUGACUCAAUAGUCCGUACGUUCCCG [8491-94_52]
Kd (all U = NapdU, C3-spacer replaces G30, SB18T0.01, 37C): 0.0504 nM

CCGUGACUCAAUAGUCCGUACGUUCCCGG [8491-94_32]
Kd (all U = NapdU, C3-spacer replaces G3, SB18T0.01, 37C): 0.78 nM

CGGUGACUCAAUAGUCCGUACGUUCCCG [8491-94_88]
Kd (all U = NapdU, 2'-OMe at 1,3,5,7,13,28, SB18T0.01, 37C): 0.0248 nM

ACTCCCCGGUGACTCAAUAGUCCGUACGUUCCCGGUCCGAACGCGGAGGA [8491-94_12]
Kd [2]: 8.57 nM

CCGGUGACUCAAUAGUCCGUACGUUCCGG [8491-94_50]
Kd (all U = NapdU, C3-spacer replaces C28, SB18T0.01, 37C): 0.448 nM

CGGUGACUCAAUAGUCCGUACGUUCCCG [8491-94_89]
Kd (all U = NapdU, 2'-OMe at 1,3,5,7,10,13,28, SB18T0.01, 37C): 0.0173 nM

ACTCCCCGGUGACUCAAUAGUCCGUACGUUCCCGGUCCGAACGC [8491-94_5]
Kd (all U = NapdU, SB18T0.01, 37C): 0.0298 nM

CGGUGACUCAAUAGUCCGUACGUUCCCG [8491-94_81]
Kd (P = NapdU (all U), 2'-OMe P23, SB18T0.01, 5 mM MgCl2, 37 C): 0.0243 nM

CCGGUGACUAAUAGUCCGUACGUUCCCGG [8491-94_37]
Kd (all U = NapdU, C3-spacer replaces C10, SB18T0.01, 37C): 0.0922 nM

CGGUGACUCAAUAGUCCGUACGUUCCG [8491-94_87]
Kd (all U = NapdU, SB18T0.01, 37C): 0.154 nM

CGGUGAUAAUAGUCGUACGUUCCG [8491-94_55]
Kd (all U = NapdU, C3-spacer replaces C7, C9, C17, C25, SB18T0.01, 37C): 0.0415 nM

CCGGUGACUCAAUAGUCGUACGUUCCCGG [8491-94_43]
Kd (all U = NapdU, C3-spacer replaces C18, SB18T0.01, 37C): 0.0142 nM

CGGUGACUCAAUAGUCCGUACGUUCCCG [8491-94_72]
Kd (all U = NapdU, 2'-OMe at G14, SB18T0.01, 37C): 6.17 nM

ACTCCCCGGUGACUCAATAGUCCGUACGUUCCCGGUCCGAACGCGGAGGA [8491-94_13]
Kd [2]: 41.7 nM

UGGUGACUCAAUAGUCGUACGUUCCCA [8491-94_137]
Kd (all P = NapdU, U1 = 2'-OMe-U, 2'-OMe at 1,2,3,5,7,9,10,13,19,20,22-28, C3-spacer replaces C17, SB18T0.01, 37C): 0.119 nM

ACTCCCCGGUGACUCAAUAGUCCGUACGUUCCCGGUCC [8491-94_7]
Kd (all U = NapdU, SB18T0.01, 37C): 0.0194 nM

ACTCCUACGGUUGGCUCCAUAGUCAGUACGUUUACGAUACCCCGAGGA [8491-282_3]
Kd [1]: 0.27 nM

CCGGUGACUCAAUAGUCCGUACGUUCCCG [8491-94_51]
Kd (all U = NapdU, C3-spacer replaces G29, SB18T0.01, 37C): 0.227 nM

CGGUGACUCAAUAGUCCGUACGUUCCCG [8491-94_69]
Kd (P = NapdU (all U), 2'-OMe A11, SB18T0.01, 5 mM MgCl2, 37 C): 0.272 nM

CGGUGACUCAAUAGUCCGUACGUUCCCG [8491-94_64]
Kd (all U = NapdU, 2'-OMe at A6, SB18T0.01, 37C): 0.512 nM

CCGGUGACUCAAUAGUCGUACGUUCCCGG [8491-94_42]
Kd (all U = NapdU, C3-spacer replaces C17, SB18T0.01, 37C): 0.86 nM

ACTCCCCGGUGACUCAAUAGUCCGUACGUUCCCGGUCCGAA [8491-94_6]
Kd (all U = NapdU, SB18T0.01, 37C): 0.019 nM

CGGUGACUCAAUAGUCCGUACGUUCCCG [8491-94_94]
Kd (all U = NapdU, 2'-OMe at 1,2,3,5,7,10,13,19,23-28, SB18T0.01, 37C): 0.0557 nM

CGGUGACUCAAUAGUCCGUACGUUCCCG [8491-94_70]
Kd (P = NapdU (all U), 2'-OMe P12, SB18T0.01, 5 mM MgCl2, 37 C): 0.338 nM

CCGGUACUCAAUAGUCCGUACGUUCCCGG [8491-94_34]
Kd (all U = NapdU, C3-spacer replaces G6, SB18T0.01, 37C): 14.1 nM

ACTCCGAGCAUUGACUCAAUAGUCCGUACGUUUUUGACCGGGGCAGGGGGAGGA [8491-385_3]
Kd (all U in listing = NapdU, printed as 1.46-10, SB18T0.01, 37C): 0.146 nM

ACTCCCCGGUGACUCAAUAGUCCGUACGUUCCCGGUCCGAACGCGGAGGA [8491-94_3]
Kd (all U in listing = NapdU, SB18T0.01 (5 mM MgCl2), 37C): 0.0313 nM

GGGUGACUCAAUAGUCGUACGUUCCCC [8491-94_134]
Kd (all P = NapdU, 2'-OMe at 1,2,3,5,7,9,10,13,19,20,22-28, C3-spacer replaces C17, SB18T0.01, 37C): 0.107 nM

CGGUGACUCAAUAGUCCGUACGUUCCCG [8491-94_82]
Kd (all U = NapdU, 2'-OMe at NapdU24, SB18T0.01, 37C): 0.0118 nM

CGGUGACUCAAUAGUCGUACGUUCCG [8491-94_56]
Kd (all U = NapdU, C3-spacer replaces C17, C25, SB18T0.01, 37C): 0.0464 nM

ACTCCCAAGCCUCUCGGUUUGGCUAAAUAGUCCGUACGUUUUCACGAGGA [8491-408_3]
Kd [1]: 0.161 nM

CGGUGACUCAAUAGUCGUACGUUCCG [8491-94_99]
Kd (all U = NapdU, 2'-OMe at 1,2,3,5,7,9,10,13,19,20,22,23,24,26,27,28, C3-spacer replaces C17, C25, SB18T0.01, 37C): 0.167 nM

CGGUGACUCAAUAGUCCGUACGUUCCCG [8491-94_84]
Kd (P = NapdU (all U), 2'-OMe C26, SB18T0.01, 5 mM MgCl2, 37 C): 0.0738 nM

CGGUGACUCAAUAGUCCGUACGUUCCCG [8491-94_60]
Kd (P = NapdU (all U), 2'-OMe G2, SB18T0.01, 5 mM MgCl2, 37 C): 0.0537 nM
